Experimental data reported in IntAct's records for PubMed 28441531.

B1: Myelin regulatory factor homolog 1 (Caenorhabditis elegans), G5EFI7 (parent)
chain: MSSSDLLKGEFDGLNSEHFNMMQYLTQDTDEDDGSMVSPTSSADSMHQNLGVQQQQQQMLQAQQRQNQNGIFQPRRFPESPAMTDPCGNVSSSSSSSHHSDPMFSPNEFNGYAGANDNGNQTMNNIQSQQLSQQQHQQTRGGNLMMPQQSSIHAQMQNMNAPQFWSQPGTAAVNQPTNTLAQLNLFNIIRGGADSGMPSPVLEMPRKRSRLDTPCETPRIAPSFAGIDGFPDENYSQQQAIRFSKFQEEQWSPLYDINAQPLQQLQVHVVADKGFNYNSNDNCFVNQKKNHFQISVNVEASDTMPPKYVNFNNRLVPIRDFKLSFCGVKAEMPSSEITIRQSRADRKPHTHTPVLFEIQERRMTKVCVPRLHFSETTLNNQRKQKNRPNPEQKFFLLVVRLFASIDESEHGVLIQSYASEKVIVRATNPGSFEPQDTDIGWQRNGGALYTQGAVSVGTEHQVESAKLTVAGDIYMSGRIINPSDIRLKEAITERETAEAIENLLKLRVVDYRYKPEVADIWGLDEQQRHRTGLIAQELQAVLPDAVRDIGDYLTIDEGRVFYETVMATQQLCRMTGDLDSKIDEKVAEISRRLNEYAVRKKLASSMASNLNGDNKSLSYSRCSLTSTATNATSQPKRSRKHRAIKQAQSCGSRLSQGTVVTLVSIMAACLLAMSALYVLDWHNRNYGYHQHFETNTPSTKGELANLVISPANFMPSFQPDAPILLEKCFNPSCKTYCCTDTPPVVEDSRAIATHGLDNGDEVYPESPSNRTNGIARAPNLEHMAFETGVEIRIPALNVTLDQRYCVERSCNKRKGIFNVFVPVSRYMPDVALEIEIKAPISKVVSNCGAFPSTEFNHKVCPLSRTQQSESPVPTSTRLFDNIFELSMGSFIQSAYRFRVGYSTETCFSEDSNGSYEEYNLIFYRMCTLSSS
partner: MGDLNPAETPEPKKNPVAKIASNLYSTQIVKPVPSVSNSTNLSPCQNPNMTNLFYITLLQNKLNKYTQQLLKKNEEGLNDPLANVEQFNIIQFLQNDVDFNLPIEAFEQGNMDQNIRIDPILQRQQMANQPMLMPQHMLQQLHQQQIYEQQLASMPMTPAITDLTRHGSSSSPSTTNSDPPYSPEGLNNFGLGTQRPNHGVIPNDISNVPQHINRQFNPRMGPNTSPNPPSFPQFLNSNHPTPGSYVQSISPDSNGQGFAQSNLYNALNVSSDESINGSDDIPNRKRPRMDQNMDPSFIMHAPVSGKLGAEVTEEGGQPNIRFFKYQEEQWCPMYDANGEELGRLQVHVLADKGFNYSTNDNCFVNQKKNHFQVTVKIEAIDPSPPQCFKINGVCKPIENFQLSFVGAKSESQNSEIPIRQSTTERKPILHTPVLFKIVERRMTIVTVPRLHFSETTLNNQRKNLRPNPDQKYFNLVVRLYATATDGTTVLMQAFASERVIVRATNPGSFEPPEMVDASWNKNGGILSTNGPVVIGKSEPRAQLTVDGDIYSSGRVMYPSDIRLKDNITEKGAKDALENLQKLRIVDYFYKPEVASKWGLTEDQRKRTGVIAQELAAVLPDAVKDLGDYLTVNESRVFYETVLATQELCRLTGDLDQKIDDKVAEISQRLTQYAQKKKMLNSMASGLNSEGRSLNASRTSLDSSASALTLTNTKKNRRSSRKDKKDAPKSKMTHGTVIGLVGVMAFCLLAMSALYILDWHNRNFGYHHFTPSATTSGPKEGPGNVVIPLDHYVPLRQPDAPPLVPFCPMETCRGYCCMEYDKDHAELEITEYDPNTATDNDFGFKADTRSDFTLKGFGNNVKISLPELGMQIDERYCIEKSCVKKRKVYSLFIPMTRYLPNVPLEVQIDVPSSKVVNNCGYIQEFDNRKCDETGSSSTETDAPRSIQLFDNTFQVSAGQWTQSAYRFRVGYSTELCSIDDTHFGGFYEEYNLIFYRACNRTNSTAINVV

Variants of: B1
Settings: with myrf2_caeel myrf-2, D9PTN5

Variant	effect of a mutation on the interaction
G274R	with no effect
